# Substitutions are numbered along the chain they refer to.
# B1: Tmem100-3Q mutant (full-length, mouse) (protein)
# chain: MTEESTKENLGAPKSPTPVTMEKNPKREVVVTTGPLVSEVQLMAATGGAELSCYRCIIPFAVVVFITGIVVTAVAYSFNSHGSIISIFGLVLLSSGLFLLASSALCWKVRQRNKKVQQQESQTALVVNQRCLFA
# B2: Tmem100: 134-amino acid two-transmembrane protein, regulator of TRPA1 (SEQ ID NO: 1/2), expressed in cells (protein, listed as Homo sapiens, listed as Mus musculus)
# chain 1: MTEEPIKEILGAPKAHMAATMEKSPKSEVVITTVPLVSEIQLMAATGGTELSCYRCIIPFAVVVFIAGIVVTAVAYSFNSHGSIISIFGLVVLSSGLFLLASSALCWKVRQRSKKAKRRESQTALVANQRSLFA
# chain 2: B1 chain with Q117K, Q118R, Q119R
# Assays:
# Format in all cases: cell-based
# [1] = tested on: TRPV1; assay: Cell-attached single-channel recording in CHO cells, CAP-induced activity (NPo); details: Vh=-60 mV
# Description: (§1) Recordings were made in cell-attached single-channel or whole-cell voltage clamp configurations at 22-24° C. from the somata of small-to-medium mouse DRG neurons (15-35 pF) or CHO cells. For whole-cell configuration, holding potential (Vh) is −60 mV. Data were acquired and analyzed using an Axopatch 200B amplifier and pCLAMP9.0 software (Molecular Devices, Sunnyvale, Calif.). Borosilicate pipettes (Sutter, Novato, Calif.) were pulled and polished to resistances of 3-5 MΩ (in whole-cell and single-channel pipette solutions). Access resistance (Rs) was compensated (40-80%) when appropriate up to the value 7-10 MΩ for whole-cell configuration. Whole-cell recording data were filtered at 0.5 kHz and sampled at 2 kHz. Single-channels currents were filtered with an 8-pole, low pass Bessel filter at 0.1 kHz and sampled at 0.5 kHz, since dwelling time (τ) of the TRPA1 and TRPV1 single-currents were >0.5 sec. Whole-cell recorded data were rejected when Rs changed >20% during recording, leak currents were >100 pA, or input resistance was <200 MΩ.
# (§2) Single-channel unitary current (i) was determined from the best-fit Gaussian distribution of amplitude histograms. Single-channel activity was analyzed as NPo=I/i, where I is the mean total current in a patch and i is unitary current at this voltage. For single channel slope conductances, linear fitting was used separately for positive and negative holding potentials. The slope conductances presented in figures were determined from fitting negative hold potentials (from −60 to 0 mV). The single-channel recording data were analyzed with Clampfit 9 software. This has an “event detection analysis” function that analyzes current traces and determines the number of channels in the patch (N), how many sub-conductances are present, and what the main conductance is. In order to increase the accuracy of the Po measurement, only patches containing fewer than 3 channels were used. For patches containing both TRPA1 and TRPV1, only those with equal numbers of TRPA1 and TRPV1 were used. This was monitored in each recording by applying MO and then CAP.
# (§3) Standard external solution (SES) for whole-cell patch recording contained (in mM): 140 NaCl, 5 KCl, 2 CaCl2, 1 MgCl2, 10 D-glucose and 10 HEPES, pH 7.4. Vehicle, which is 0.01% DMSO, was added to external solutions. The bath solution for single-channel recording (SES-SCh) of TRP currents consisted of (in mM): 100 K-gluconate, 4 KCl, 1 MgCl2, 1 EGTA, 10 D-glucose and 10 Hepes (pH 7.3). The standard pipette solution (SIS) for the whole-cell configurations contained (in mM): 140 KCl, 1 MgCl2, 1 CaCl2, 10 EGTA, 10 D-glucose, 10 HEPES, pH 7.3. […] The baseline activities of the cells were recorded for 1-2 min prior drug applications. […]
# [2] = tested on: TRPA1; assay: Cell-attached single-channel recording in CHO cells, MO-induced activity (NPo); details: Vh=-60 mV; co-expressed with TRPA1 only (1:4) in CHO cells
# Description: as §1, §2, §3
# [3] = tested on: T1, TRPA1; assay: as above; details: Vh=-60 mV; co-expressed with TRPA1+TRPV1 (1:1:4) in CHO cells
# T1 construct: MO (10 μM)-evoked Ca2+ influx; other: TRPA1+TRPV1+Tmem100-3Q (1:1:4) CHO cells; MO (10 μM)-gated whole-cell current density; other: Vh=-60 mV; TRPA1+TRPV1+Tmem100-3Q (1:1:4) CHO cells; MO (10 μM)-induced single-channel activity (NPo); co-expressed with TRPA1+TRPV1 (1:1:4) in CHO cells
# Description: as §1, §2, §3
# [4] = tested on: TRPA1-V1 complex; assay: FRET with TIRF microscopy of TRPV1-CFP and TRPA1-YFP in COS-7 cells; details: compared to cells expressing only TRPA1-V1
# Description: Expression vectors of pEYFP-TRPA1 (YFP on C-terminal part), pECFP-TRPV1 (CFP on C-terminal part), and pEYFP-N1 were transfected into COS-7 cells with FuGENE HD (Promega E2311), as previously described (Staruschenko et al., 2010). COS-7 cells were chosen since they have flat morphology and thus suitable for TIRF-FRET analysis. Moreover, previously it has been shown that CHO and COS cells express TRPA1 and TRPV1 to the same level (Staruschenko et al., 2010). Data from fixed cells were collected in separate facilities at University of Texas Health Science Center, San Antonio, and the Johns Hopkins University, respectively. […] Briefly, two days after transfection, the cells were fixed for 15 min with 4% paraformaldehyde in PBS and then imaged at the room temperature using total internal reflection fluorescence (TIRF) (also called evanescent-field) microscopy on an inverted Nikon Eclipse TE200U microscope equipped with a plain Apo TIRF 60× oil-immersion, high-resolution (1.45 NA) objective. […] Fluorescence images were collected and processed with a 16-bit, cooled charge-coupled device camera (Cascade 512F; Roper Scientific Inc.) interfaced to a PC running Metamorph software.
# Each cell was photobleached by argon-ion laser (514 nm) at full power for 2 min. […] All images were analyzed in ImageJ. […]
# [5] = co-expressed with TRPA1+TRPV1 (1:1:4) in CHO cells
# [6] = co-expressed with TRPV1 only (1:4) in CHO cells
Molecule,"CAP (100 nM)-induced single-channel activity (NPo) [1, 5]","CAP (100 nM)-induced single-channel activity (NPo) [1, 6]",MO (10 μM)-induced single-channel activity (NPo) [2],MO (10 μM)-induced single-channel activity (NPo) [3],enhancement of the TRPA1-TRPV1 interaction (FRET efficiency) [4],decrease of TRPA1-V1 FRET efficiency [4]
B1,1.08±0.17,0.73±0.12,1.05±0.14,0.16±0.06,43%,
B2,0.82±0.14,0.45±0.1,0.64±0.18,1.05±0.14,,34%
